The target of the test is Full-length SARS-Cov-2-Nucleocapsid (FLN), WT (SARS-CoV-2). Nature of the test: AUC.

From paper doi:10.1101/2023.05.26.542392 come the findings set out here.

Broadly, the stoichiometry N is a count of units in the complex or per binding partner. Regarding “Full-length SARS-Cov-2-Nucleocapsid (FLN), WT (natural protein)”, the stoichiometry N is 2.
